Article PMC5643561, “Zdhhc13-dependent Drp1 S-palmitoylation impacts brain bioenergetics, anxiety, coordination and motor skills” (Scientific Reports, 2017)
Blank lines part the entries; values can stand above or below the binder they belong to.

Molecular target: T1, Drp1, recombinant, purified (Novus Biologicals # H00010059-P01) (UniProt O00429 1-736)
T1 construct: Drp1 (dynamin-related protein 1); The methods call Drp1 GST-tagged and immobilised; The results describe it as untagged analyte at 56, 167 and 500 nM; also called GST-tagged recombinant, purified Drp1; recombinant Drp1; source: bought: Novus Biologicals, # H00010059-P01
T1 sequence (O00429 whole entry): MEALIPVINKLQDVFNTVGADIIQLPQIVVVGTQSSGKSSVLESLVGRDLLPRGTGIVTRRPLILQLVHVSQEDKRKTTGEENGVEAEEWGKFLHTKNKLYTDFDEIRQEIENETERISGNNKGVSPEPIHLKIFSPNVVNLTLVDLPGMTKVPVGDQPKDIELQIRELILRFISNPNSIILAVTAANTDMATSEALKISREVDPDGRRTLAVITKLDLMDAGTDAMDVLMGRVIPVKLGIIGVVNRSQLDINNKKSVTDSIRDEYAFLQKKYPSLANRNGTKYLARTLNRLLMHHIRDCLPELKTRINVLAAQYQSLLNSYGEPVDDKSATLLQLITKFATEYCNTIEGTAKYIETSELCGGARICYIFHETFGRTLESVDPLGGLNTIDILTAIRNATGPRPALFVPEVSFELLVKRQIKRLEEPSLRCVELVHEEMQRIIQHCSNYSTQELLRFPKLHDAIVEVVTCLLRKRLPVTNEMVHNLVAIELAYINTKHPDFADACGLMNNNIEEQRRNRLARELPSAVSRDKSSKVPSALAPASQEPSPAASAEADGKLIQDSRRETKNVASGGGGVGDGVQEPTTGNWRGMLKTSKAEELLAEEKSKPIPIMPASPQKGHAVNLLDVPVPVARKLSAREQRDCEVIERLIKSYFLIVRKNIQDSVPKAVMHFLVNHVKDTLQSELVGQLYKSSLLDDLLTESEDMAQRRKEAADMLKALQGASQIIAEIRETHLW
Assay: BLI; Octet RED384 (ForteBio), anti-GST biosensor. Methods: GST-Drp1 immobilised, WT or L203X Zdhhc13 in solution. Results: GST-Zdhhc13 captured, Drp1 at 56, 167 and 500 nM.
Conditions: both partners purified

- Kd: 88 nM
- koff: 0.0018 s⁻¹
- kon: 21000 M⁻¹ s⁻¹
B1: Zdhhc13 L203X, truncated form, recombinant (mouse sequence) (domain or fragment, UniProt Q9CWU2 1-202, looked up)
chain: MEGPGLGSQCRNHSHGSHVPGFGRHGICVHENKELAKAKEILPLIEDSSNCDIVKATQYGIFERCKELVEAGYDVRQPDRENVSLLHWAAINNRLELVKFYISKGAVIDQLGGDLNSTPLHWAIRQGHLPMVILLLQHGADPTLIDGEGFSSIHLAVLFQHMPIIAYLISKGQSVNMTDVNGQTPLMLSAYKVIGPEPTGFL
notes: Zdhhc13, mouse, UniProtKB Q9CWU2; naturally occurring nonsense mutation L203X (premature stop codon at codon 203), so the chain ends at residue 202; also called L203X Zdhhc13; truncated Zdhhc13; source: purified recombinant (culture eluate)

- Kd: 560 nM
- koff: 0.046 s⁻¹
- kon: 82000 M⁻¹ s⁻¹
B2: Zdhhc13, wild type, recombinant (mouse sequence) (enzyme, UniProt Q9CWU2 1-622, looked up)
chain: MEGPGLGSQCRNHSHGSHVPGFGRHGICVHENKELAKAKEILPLIEDSSNCDIVKATQYGIFERCKELVEAGYDVRQPDRENVSLLHWAAINNRLELVKFYISKGAVIDQLGGDLNSTPLHWAIRQGHLPMVILLLQHGADPTLIDGEGFSSIHLAVLFQHMPIIAYLISKGQSVNMTDVNGQTPLMLSAYKVIGPEPTGFLLKFNPSLSVVDKTHQNTPLHWAVAAGNVSAVDKLLEAGSSLDIRNAKGETPLDMALQSKNQLISHMLRTEAKMRANKQFRLWRWLHKCELFLLLILSMITLWAVGYILDFNSDSWLLKGCLLVALFFLTSLFPRFLVGYKNLVYLPTVFLLSSIFWIFMTWFILFFPDTAGSPLYFAFIFSIMAFLYFFYKTWATDPGFTKASEEERKVNIVTLAETGSLDFRTFCTSCLIRKPLRSLHCHVCNSCVARFDQHCFWTGRCIGFGNHHHYIFFLLSLSMVCDWIIYGSFVYWSNHCATTFKEDGLWTYLNQIVACSPWVLYIFMLAAFHFSWSTFLLINQLFQIAFLGLTSHERISLLKQSRHMKQTLSLRKTPYNLGFTQNLADFFQCGCFGLVKPCIIDWTSQYTMVFHPAKEKVLRSV
notes: Zdhhc13, mouse, UniProtKB Q9CWU2; also called WT Zdhhc13; full length GST-tagged Zdhhc13; source: purified recombinant (culture supernatant)
